Measurements reported in IntAct's records for PubMed 21804557.

B1: Indoleamine 2,3-dioxygenase 1 (Mus musculus), P28776 (parent)
chain: MALSKISPTEGSRRILEDHHIDEDVGFALPHPLVELPDAYSPWVLVARNLPVLIENGQLREEVEKLPTLSTDGLRGHRLQRLAHLALGYITMAYVWNRGDDDVRKVLPRNIAVPYCELSEKLGLPPILSYADCVLANWKKKDPNGPMTYENMDILFSFPGGDCDKGFFLVSLLVEIAASPAIKAIPTVSSAVERQDLKALEKALHDIATSLEKAKEIFKRMRDFVDPDTFFHVLRIYLSGWKCSSKLPEGLLYEGVWDTPKMFSGGSAGQSSIFQSLDVLLGIKHEAGKESPAEFLQEMREYMPPAHRNFLFFLESAPPVREFVISRHNEDLTKAYNECVNGLVSVRKFHLAIVDTYIMKPSKKKPTDGDKSEEPSNVESRGTGGTNPMTFLRSVKDTTEKALLSWP

Variants of: B1
Conditions: with ptn6_mouse Ptpn6, P29351
ptn6_mouse Ptpn6, P29351, sequence (P29351 whole entry): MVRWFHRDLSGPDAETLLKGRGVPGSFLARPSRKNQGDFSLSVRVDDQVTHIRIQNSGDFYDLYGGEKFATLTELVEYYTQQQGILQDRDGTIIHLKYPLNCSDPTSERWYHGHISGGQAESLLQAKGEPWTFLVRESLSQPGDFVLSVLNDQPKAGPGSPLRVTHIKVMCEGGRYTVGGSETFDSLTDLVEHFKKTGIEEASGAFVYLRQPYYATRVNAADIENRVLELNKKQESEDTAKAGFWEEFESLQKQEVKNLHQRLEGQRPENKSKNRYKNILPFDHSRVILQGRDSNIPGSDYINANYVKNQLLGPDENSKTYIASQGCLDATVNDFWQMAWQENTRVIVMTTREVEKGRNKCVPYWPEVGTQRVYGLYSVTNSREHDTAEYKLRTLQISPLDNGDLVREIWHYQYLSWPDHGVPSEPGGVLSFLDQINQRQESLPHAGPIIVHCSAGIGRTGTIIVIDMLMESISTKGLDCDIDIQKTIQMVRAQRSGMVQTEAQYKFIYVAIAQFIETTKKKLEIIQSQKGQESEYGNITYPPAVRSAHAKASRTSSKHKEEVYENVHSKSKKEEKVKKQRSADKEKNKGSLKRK
With Y115F;Y253F the “effect of a mutation on the interaction” value was “decreasing interaction”.
